Biological target: empty A2-SABR pulsed with soluble MART1 peptide (…) (Homo sapiens; human) (UniProt P61769)
Test: cell-based or functional assay

Substance F5 TCR has a fold decrease in antigen sensitivity (concentration of the peptide required for half-maximal signaling), SABR signaling against TCR signaling of 30 fold.

Source: patent US12221465
